Activity (% A-to-G conversion) data for one sequence are collected here from US20250027114.

The test system of series [1] is T1, E2-12-ABE8e (Neisseria meningitidis).
T1 sequence: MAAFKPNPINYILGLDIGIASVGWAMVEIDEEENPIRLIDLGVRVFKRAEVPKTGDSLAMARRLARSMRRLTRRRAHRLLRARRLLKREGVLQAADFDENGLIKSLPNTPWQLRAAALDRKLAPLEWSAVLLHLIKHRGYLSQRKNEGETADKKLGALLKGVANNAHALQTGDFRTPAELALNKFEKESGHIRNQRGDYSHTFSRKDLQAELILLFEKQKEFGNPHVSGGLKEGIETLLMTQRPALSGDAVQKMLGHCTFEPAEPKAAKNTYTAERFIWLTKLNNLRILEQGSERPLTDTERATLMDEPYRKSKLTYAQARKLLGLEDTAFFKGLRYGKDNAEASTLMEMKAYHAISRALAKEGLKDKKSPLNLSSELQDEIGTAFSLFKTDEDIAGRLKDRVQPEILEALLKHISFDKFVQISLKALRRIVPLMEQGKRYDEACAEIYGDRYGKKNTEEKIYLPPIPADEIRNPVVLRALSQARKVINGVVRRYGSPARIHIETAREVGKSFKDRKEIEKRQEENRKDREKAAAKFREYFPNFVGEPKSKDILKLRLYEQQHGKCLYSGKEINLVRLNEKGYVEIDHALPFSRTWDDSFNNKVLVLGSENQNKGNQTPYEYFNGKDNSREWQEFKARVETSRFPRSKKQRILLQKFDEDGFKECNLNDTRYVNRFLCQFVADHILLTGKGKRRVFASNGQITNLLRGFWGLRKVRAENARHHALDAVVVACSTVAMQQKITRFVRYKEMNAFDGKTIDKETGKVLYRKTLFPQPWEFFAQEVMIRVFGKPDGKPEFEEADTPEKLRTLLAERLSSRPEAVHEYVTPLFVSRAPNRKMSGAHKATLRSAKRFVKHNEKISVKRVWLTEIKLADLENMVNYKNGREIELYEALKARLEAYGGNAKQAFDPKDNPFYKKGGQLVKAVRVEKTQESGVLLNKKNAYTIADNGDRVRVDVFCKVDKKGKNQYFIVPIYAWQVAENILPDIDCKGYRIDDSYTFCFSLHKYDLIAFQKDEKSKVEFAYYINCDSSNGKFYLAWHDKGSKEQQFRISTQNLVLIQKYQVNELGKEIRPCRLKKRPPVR
Put plainly: cell_activity. The settings on record: PAM N4YNC average, E. coli ABE-PPA; 33% on N4YND.

Series [2] concerns T2, N1-21-ABE8e (Neisseria meningitidis).
T2 sequence: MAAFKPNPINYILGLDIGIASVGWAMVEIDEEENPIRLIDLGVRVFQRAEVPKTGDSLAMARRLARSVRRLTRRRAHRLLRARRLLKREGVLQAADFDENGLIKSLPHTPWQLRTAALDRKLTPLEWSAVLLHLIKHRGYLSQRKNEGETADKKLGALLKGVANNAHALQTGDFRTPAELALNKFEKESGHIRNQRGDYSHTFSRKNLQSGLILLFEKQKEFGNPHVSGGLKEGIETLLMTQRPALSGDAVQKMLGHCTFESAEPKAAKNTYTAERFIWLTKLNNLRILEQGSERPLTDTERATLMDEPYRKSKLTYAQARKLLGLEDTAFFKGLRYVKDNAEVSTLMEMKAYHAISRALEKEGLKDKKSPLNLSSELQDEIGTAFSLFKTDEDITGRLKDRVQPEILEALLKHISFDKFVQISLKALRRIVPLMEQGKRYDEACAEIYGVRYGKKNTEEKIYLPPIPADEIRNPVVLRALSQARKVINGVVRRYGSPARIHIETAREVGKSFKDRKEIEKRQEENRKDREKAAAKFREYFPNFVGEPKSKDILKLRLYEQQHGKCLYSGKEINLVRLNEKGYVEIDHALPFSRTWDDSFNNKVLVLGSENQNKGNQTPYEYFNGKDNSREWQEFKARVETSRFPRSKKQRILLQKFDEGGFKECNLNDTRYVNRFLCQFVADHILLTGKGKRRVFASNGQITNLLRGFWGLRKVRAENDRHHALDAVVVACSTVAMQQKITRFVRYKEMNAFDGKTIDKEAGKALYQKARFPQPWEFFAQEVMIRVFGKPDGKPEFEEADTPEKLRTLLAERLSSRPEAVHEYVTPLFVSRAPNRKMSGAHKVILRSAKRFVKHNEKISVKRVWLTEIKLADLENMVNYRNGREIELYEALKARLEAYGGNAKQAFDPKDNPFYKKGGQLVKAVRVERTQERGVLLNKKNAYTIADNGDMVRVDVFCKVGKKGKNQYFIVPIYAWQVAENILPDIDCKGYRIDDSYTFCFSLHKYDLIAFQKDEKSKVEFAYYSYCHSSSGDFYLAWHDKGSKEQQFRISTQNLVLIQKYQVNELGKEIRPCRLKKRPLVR
Briefly: cell_activity. Particulars: E. coli ABE-PPA.

On to “AUGGCCCAGACUGAGCACGUGAGGUUGUAGCUCCCUUUCUCAUUUCGGAAACGAAAUGAGAACCGUUGCUACAAUAAGGCCGUCUGAAAAGAUGUGCCGCAACGCUCUGCCCCUUAAAGCUUCUGCUUUAAGGGGCAUCGUUUA / ATGGCCCAGACTGAGCACGTGA / TCACGTGCTCAGTCTGGGCCAT [ABE-PPA sgRNA ; ABE-PPA protospacer library target]”, for which the activity (% A-to-G conversion) in series [1] is 58; in series [2] (PAM N3CCC (counterselected), virtually eliminated), 4.8; in series [2] (PAM N3TTG, 64% average on N4GN PAMs) it was 67.
